{
  "source": "paper PMC8599909",
  "biological_target": "T1, PUS7(Δ1-98) (Homo sapiens, UniProt Q96PZ0 99-661, del1-98)",
  "T1 sequence": "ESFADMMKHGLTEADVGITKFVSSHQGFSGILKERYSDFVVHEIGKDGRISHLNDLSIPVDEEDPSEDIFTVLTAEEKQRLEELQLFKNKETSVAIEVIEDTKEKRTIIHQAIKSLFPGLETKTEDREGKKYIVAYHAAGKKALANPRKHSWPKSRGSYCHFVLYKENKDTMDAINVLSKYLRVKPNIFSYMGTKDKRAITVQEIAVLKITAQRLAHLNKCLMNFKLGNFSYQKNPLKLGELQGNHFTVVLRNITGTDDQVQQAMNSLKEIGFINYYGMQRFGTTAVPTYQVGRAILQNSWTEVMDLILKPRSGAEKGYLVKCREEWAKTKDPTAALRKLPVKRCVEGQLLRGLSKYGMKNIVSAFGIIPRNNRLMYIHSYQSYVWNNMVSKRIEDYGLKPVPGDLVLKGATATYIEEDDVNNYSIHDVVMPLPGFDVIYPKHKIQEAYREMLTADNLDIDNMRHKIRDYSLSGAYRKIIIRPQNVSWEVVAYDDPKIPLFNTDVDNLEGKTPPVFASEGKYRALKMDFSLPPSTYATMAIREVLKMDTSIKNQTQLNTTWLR",
  "experiment": "filter binding",
  "data": [
    {"binder": "GGGGCCCCAUGGUGUAAUGG (ssRNA)", "note": "[18mer-cy-tRNAGln]", "values": [
      {"measurement": "Kd", "result": "267 ± 91", "unit": "nM"}
    ]}
  ]
}
